From PMC10279719 (Nature Communications, 2023)

Assays:
CrkII^NSH3 = molecular target: T1, CrkII^NSH3 (Homo sapiens, UniProt P46108); test: SPR, CrkII NSH3 binding to immobilised PEAK proteins; details: read-out: CrkII NSH3 SPR KD; interactor as analyte over biotinylated PEAK protein captured with biotin CAPture kit; Biacore 8K+, HBS-TP, 20 °C; steady-state fit; mean ± SD (N = 2); read-out: CrkII-SH2 SPR KD
T1 construct: CrkII^NSH3; UniProt P46108-1, residues 134–191; 8-His tag with TEV protease cleavage site (N); made in house; host or cells: E. coli C41 (DE3)
T1 sequence (P46108 134-191): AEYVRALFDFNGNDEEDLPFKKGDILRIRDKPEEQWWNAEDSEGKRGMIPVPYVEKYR
Procedure: (§1) SPR binding studies of PEAK PRM peptides to CrkII^NSH3 were performed using a Biacore S200 Instrument (Cytiva). Purified CrkII^NSH3 was diluted to 5 µg ml^−1 in 10 mM sodium acetate pH 4.0 and amine coupled at 25 °C to a Series S CM5 sensor chip, in HBS-N running buffer (20 mM HEPES pH 7.4, 150 mM NaCl) to a final immobilization level of 1100–1400 response units (RU), followed by surface deactivation using 1 M ethanolamine. A blank activation/deactivation was used for the reference surface. Peptide binding studies were performed at 20 °C in HBS-TP running buffer (20 mM HEPES pH 7.4, 150 mM NaCl, 1 mM TCEP, 0.005% (v/v) Tween-P20). […] Peptide stocks were further diluted to in running buffer to 10 or 20 µM and prepared as a 11-point concentration series (2-fold serial dilution, […] for PEAK PRM peptides, or 20 µM–20 nM for PEAK tandem motif peptides). Samples were injected in a multi-cycle run (flow rate 30 µl min^−1, contact time of 60 s, dissociation 120 s) without regeneration. Sensorgrams were double referenced, and steady-state binding data fitted using a 1:1 binding model using Biacore S200 Evaluation Software (Cytiva, v. 1.1).
(§2) SPR binding studies of PEAK proteins to full length CrkII/Grb2 and sub-domains were performed using a Biacore 8K+ Instrument (Cytiva) and analyzed using Biacore Insight Evaluation Software (v. 3.0.12.15655). […] Binding studies and steady-state data analysis were performed as described for CrkII^NSH3 with the inclusion of an additional surface regeneration step (60 s injection of 1 M NaCl) between cycles.

CrkII^SH2 = molecular target: T2, CrkII^SH2 (Homo sapiens, UniProt P46108); test: SPR, CrkII SH2 binding to immobilised PEAK proteins; details: interactor as analyte over biotinylated PEAK protein (biotin CAPture); Biacore 8K+, HBS-TP with 500 mM NaCl, 20 °C; steady-state fit; mean ± S.E.M. (N = 3)
T2 construct: CrkII^SH2; UniProt P46108-1, residues 6–120; 8-His tag with TEV protease cleavage site (N); made in house; host or cells: E. coli C41 (DE3)
T2 sequence (P46108 6-120): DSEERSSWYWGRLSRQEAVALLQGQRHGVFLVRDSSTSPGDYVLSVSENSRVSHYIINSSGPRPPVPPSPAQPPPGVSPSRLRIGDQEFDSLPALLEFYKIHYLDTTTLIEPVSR
Procedure: as §1
(§3) SPR binding studies of PEAK proteins to full length CrkII/Grb2 and sub-domains were performed using a Biacore 8K+ Instrument (Cytiva) and analyzed using Biacore Insight Evaluation Software (v. 3.0.12.15655). […]

CrkII^FL monomer = molecular target: T3, CrkII^FL monomer (Homo sapiens, UniProt P46108); test: SPR, CrkII FL monomer binding to immobilised PEAK proteins; details: interactor as analyte over biotinylated PEAK protein (biotin CAPture); Biacore 8K+, HBS-TP with 500 mM NaCl, 20 °C; steady-state fit; mean ± SD (N = 2)
T3 construct: full length CrkII (CrkII^FL; UniProt P46108-1, residues 1–330); 8-His tag with TEV protease cleavage site (N); made in house; host or cells: E. coli C41 (DE3)
T3 sequence (P46108 whole entry, the tested form may be a part): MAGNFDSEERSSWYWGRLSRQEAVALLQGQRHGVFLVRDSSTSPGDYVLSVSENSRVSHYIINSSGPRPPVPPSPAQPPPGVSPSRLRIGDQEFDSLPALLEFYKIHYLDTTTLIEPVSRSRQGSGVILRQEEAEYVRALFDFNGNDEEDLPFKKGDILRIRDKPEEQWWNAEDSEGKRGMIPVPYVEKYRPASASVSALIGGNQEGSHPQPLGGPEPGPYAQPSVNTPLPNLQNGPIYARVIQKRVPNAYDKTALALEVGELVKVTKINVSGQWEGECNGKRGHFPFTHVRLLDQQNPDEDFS
Procedure: as §1, §2

CrkII^FL dimer = molecular target: T4, CrkII^FL dimer (Homo sapiens, UniProt P46108); test: SPR, CrkII FL dimer binding to immobilised PEAK proteins; details: interactor as analyte over biotinylated PEAK protein (biotin CAPture); Biacore 8K+, HBS-TP with 500 mM NaCl, 20 °C; steady-state fit; mean ± SD (N = 2)
T4 construct: full length CrkII (CrkII^FL; UniProt P46108-1, residues 1–330); 8-His tag with TEV protease cleavage site (N); made in house; host or cells: E. coli C41 (DE3)
T4 sequence (P46108 whole entry, the tested form may be a part): as above
Procedure: as §1, §2

Grb2^SH2 = Grb2^SH2 (Homo sapiens, UniProt P62993); test: SPR, Grb2 SH2 binding to immobilised PEAK proteins; details: interactor as analyte over biotinylated PEAK protein (biotin CAPture); Biacore 8K+, HBS-TP with 500 mM NaCl, 20 °C; steady-state fit; mean ± S.E.M. (N = 3)
Sequence of Grb2^SH2 (P62993 60-152 limits assumed): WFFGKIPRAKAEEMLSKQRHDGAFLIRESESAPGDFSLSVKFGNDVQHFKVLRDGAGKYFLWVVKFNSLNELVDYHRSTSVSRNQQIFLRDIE
Procedure: as §1, §3

Grb2^FL = molecular target: T5, Grb2^FL (Homo sapiens, UniProt P62993); test: SPR, Grb2 FL binding to immobilised PEAK proteins; details: interactor as analyte over biotinylated PEAK protein (biotin CAPture); Biacore 8K+, HBS-TP with 500 mM NaCl, 20 °C; steady-state fit; mean ± SD (N = 2) or S.E.M. (N = 3)
T5 construct: Grb2^FL; UniProt P62993-1, residues 1–217; 8-His tag with TEV protease cleavage site (N); made in house; host or cells: E. coli C41 (DE3)
Procedure: as §1, §3

14-3-3ɣ = test: SPR, 14-3-3ɣ binding to immobilised PEAK proteins; design: species or system human; details: 14-3-3ɣ analyte 0.46–1000 nM, multi-cycle, over immobilised biotinylated PEAK protein; Biacore 8K+, 20 °C; KD only an estimate (bivalent analyte model); N = 3
Procedure: PEAK proteins and adapters proteins (full length or individual domains) were biotinylated using EZ-Link™ NHS-PEG4-Biotin (Thermo Fisher) at a 1:1 molar ratio (100 µM) for 1 h at room temperature, then excess biotin was removed by buffer exchange using a Zeba™ Spin Desalting Column (Thermo Fisher) into HBS-T buffer (20 mM HEPES pH 7.4, 150 mM NaCl, 1 mM TCEP).
SPR binding studies of PEAK proteins to full length CrkII/Grb2 and sub-domains were performed using a Biacore 8K+ Instrument (Cytiva) and analyzed using Biacore Insight Evaluation Software (v. 3.0.12.15655). […] Biotinylated PEAK proteins (with or without Src phosphorylation; 500 nM in HBS-TP) were immobilized using a biotin CAPture kit (Cytiva) in HBS-TP running buffer at 20 °C. Binding studies and steady-state data analysis were performed as described for CrkII^NSH3 with the inclusion of an additional surface regeneration step (60 s injection of 1 M NaCl) between cycles. For Grb2^FL, Grb2^SH2, CrkII^SH2, CrkII^FL monomer and CrkII^FL dimer, to reduce nonspecific interactions the HBS-TP running buffer was supplemented with additional NaCl to a final concentration of 500 mM.
Binding studies for 14-3-3ɣ were undertaken in the same way in multi cycle mode (8 point, 3-fold serial dilution series, 0.46–1000 nM, 60 s contact time, 300 s dissociation).

Molecule	Kd (CrkII^NSH3) [µM]	SPR KD, CrkII-SH2 (CrkII^SH2)	Kd (CrkII^FL monomer) [µM]	Kd (CrkII^FL dimer) [µM]	SPR KD, Grb2 SH2 (Grb2^SH2)	Kd (Grb2^FL) [µM]	SPR KD, 14-3-3ɣ (14-3-3ɣ)
PEAK2-IDR1: recombinant human PEAK2 residues 802–1406, insect cell expressed (protein, phosphorylated at the tandem site 14-3-3 motif (RAASSP) by LC MS/MS; left off: His tag, N-terminal, state not stated, recombinant human PEAK2 residues 802–1406, insect cell expressed) EDVSPSGPQQPPPLPQKKIVSRAASSPDGFFWTQGSPKPGTASPKLNLSHSETNVHDESHFSYSLSPGNRHHPVFSSSDPLEKAFKGSGHWLPAAGLAGNRGGCGSPGLQCKGAPSASSSQLSVSSQASTGSTQLQLHGLLSNISSKEGTYAKLGGLYTQSLARLVAKCEDLFMGGQKKELHFNENNWSLFKLTCNKPCCDSGDAIYYCATCSEDPGSTYAVKICKAPEPKTVSYCSPSVPVHFNIQQDCGHFVASVPSSMLSSPDAPKDPVPALPTHPPAQEQDCVVVITREVPHQTASDFVRDSAASHQAEPEAYERRVCFLLLQLCNGLEHLKEHGIIHRDLCLENLLLVHCTLQAGPGPAPAPAPAPAPAAAAPPCSSAAPPAGGTLSPAAGPASPEGPREKQLPRLIISNFLKAKQKPGGTPNLQQKKSQARLAPEIVSASQYRKFDEFQTGILIYELLHQPNPFEVRAQLRERDYRQEDLPPLPALSLYSPGLQQLAHLLLEADPIKRIRIGEAKRVLQCLLWGPRRELVQQPGTSEEALCGTLHNWIDMKRALMMMKFAEKAVDRRRGVELEDWLCCQYLASAEPGALLQSLKLLQLL	4.79	No binding	13.7	4.22	–	–	No binding
PEAK2-IDR1 (+ Src phosphorylation): PEAK2 residues 802–1406 phosphorylated with recombinant Src kinase (protein, phosphorylated with Src kinase, sites not stated; phosphorylation of the tandem site 14-3-3 motif (RAASSP) found by proteomic analysis; biotin (EZ-Link NHS-PEG4-Biotin, 1:1 molar ratio); left off: His, PEAK2 residues 802–1406 phosphorylated with recombinant Src kinase) EDVSPSGPQQPPPLPQKKIVSRAASSPDGFFWTQGSPKPGTASPKLNLSHSETNVHDESHFSYSLSPGNRHHPVFSSSDPLEKAFKGSGHWLPAAGLAGNRGGCGSPGLQCKGAPSASSSQLSVSSQASTGSTQLQLHGLLSNISSKEGTYAKLGGLYTQSLARLVAKCEDLFMGGQKKELHFNENNWSLFKLTCNKPCCDSGDAIYYCATCSEDPGSTYAVKICKAPEPKTVSYCSPSVPVHFNIQQDCGHFVASVPSSMLSSPDAPKDPVPALPTHPPAQEQDCVVVITREVPHQTASDFVRDSAASHQAEPEAYERRVCFLLLQLCNGLEHLKEHGIIHRDLCLENLLLVHCTLQAGPGPAPAPAPAPAPAAAAPPCSSAAPPAGGTLSPAAGPASPEGPREKQLPRLIISNFLKAKQKPGGTPNLQQKKSQARLAPEIVSASQYRKFDEFQTGILIYELLHQPNPFEVRAQLRERDYRQEDLPPLPALSLYSPGLQQLAHLLLEADPIKRIRIGEAKRVLQCLLWGPRRELVQQPGTSEEALCGTLHNWIDMKRALMMMKFAEKAVDRRRGVELEDWLCCQYLASAEPGALLQSLKLLQLL	5.2	–	2.12	1.38	–	–	No binding

More lines, in order of falling Kd (CrkII^NSH3), values ahead:

Kd (CrkII^NSH3) [µM]	SPR KD, CrkII-SH2 (CrkII^SH2)	Kd (CrkII^FL monomer) [µM]	Kd (CrkII^FL dimer) [µM]	SPR KD, Grb2 SH2 (Grb2^SH2)	Kd (Grb2^FL) [µM]	SPR KD, 14-3-3ɣ (14-3-3ɣ)	Molecule
4.11	–	1.5	1.49	–	–	No binding	PEAK1-IDR1 (+ Src phosphorylation): PEAK1 residues 1082–1746 phosphorylated with recombinant Src kinase (protein, phosphotyrosine at Y1107 (by Src in vitro, shown by MS/MS); other Src sites not stated; biotin (EZ-Link NHS-PEG4-Biotin, 1:1 molar ratio); left off: His-tag, N-terminal, state not stated, PEAK1 residues 1082–1746 phosphorylated with recombinant Src kinase) LPELEREDGKEDISDPMDPNPCSATYSNLGQSRAAMIPPKQPRQPKGAVDDAIAFGGKTDQEAPNASQPTPPPLPKKMIIRANTEPISKDLQKSMESSLCVMANPTYDIDPNWDASSAGSSISYELKGLDIESYDSLERPLRKERPVPSAANSISSLTTLSIKDRFSNSMESLSSRRGPSCRQGRGIQKPQRQALYRGLENREEVVGKIRSLHTDALKKLAVKCEDLFMAGQKDQLRFGVDSWSDFRLTSDKPCCEAGDAVYYTASYAKDPLNNYAVKICKSKAKESQQYYHSLAVRQSLAVHFNIQQDCGHFLAEVPNRLLPWEDPDDPEKDEDDMEETEEDAKGETDGKNPKPCSEAASSQKENQGVMSKKQRSHVVVITREVPCLTVADFVRDSLAQHGKSPDLYERQVCLLLLQLCSGLEHLKPYHVTHCDLRLENLLLVHYQPGGTAQGFGPAEPSPTSSYPTRLIVSNFSQAKQKSHLVDPEILRDQSRLAPEIITATQYKKCDEFQTGILIYEMLHLPNPFDENPELKEREYTRADLPRIPFRSPYSRGLQQLASCLLNPNPSERILISDAKGILQCLLWGPREDLFQTFTACPSLVQRNTLLQNWLDIKRTLLMIKFAEKSLDREGGISLEDWLCAQYLAFATTDSLSCIVKILQHR
3.7	No binding	9.2	2.03	No binding	> 50	No binding	PEAK1-IDR1: recombinant human PEAK1 residues 1082–1746, insect cell expressed (protein, left off: His tag, N-terminal, state not stated, recombinant human PEAK1 residues 1082–1746, insect cell expressed) LPELEREDGKEDISDPMDPNPCSATYSNLGQSRAAMIPPKQPRQPKGAVDDAIAFGGKTDQEAPNASQPTPPPLPKKMIIRANTEPISKDLQKSMESSLCVMANPTYDIDPNWDASSAGSSISYELKGLDIESYDSLERPLRKERPVPSAANSISSLTTLSIKDRFSNSMESLSSRRGPSCRQGRGIQKPQRQALYRGLENREEVVGKIRSLHTDALKKLAVKCEDLFMAGQKDQLRFGVDSWSDFRLTSDKPCCEAGDAVYYTASYAKDPLNNYAVKICKSKAKESQQYYHSLAVRQSLAVHFNIQQDCGHFLAEVPNRLLPWEDPDDPEKDEDDMEETEEDAKGETDGKNPKPCSEAASSQKENQGVMSKKQRSHVVVITREVPCLTVADFVRDSLAQHGKSPDLYERQVCLLLLQLCSGLEHLKPYHVTHCDLRLENLLLVHYQPGGTAQGFGPAEPSPTSSYPTRLIVSNFSQAKQKSHLVDPEILRDQSRLAPEIITATQYKKCDEFQTGILIYEMLHLPNPFDENPELKEREYTRADLPRIPFRSPYSRGLQQLASCLLNPNPSERILISDAKGILQCLLWGPREDLFQTFTACPSLVQRNTLLQNWLDIKRTLLMIKFAEKSLDREGGISLEDWLCAQYLAFATTDSLSCIVKILQHR
